Changes are numbered by the printed parent chain. Blank lines part the entries; values can stand above or below the binder they belong to.
Molecular target: T1, ヒトTFPI (human tissue factor pathway inhibitor; American Diagnostica) (human, UniProt P10646 29-304, limits assumed)
T1 construct: Coated on plates (ELISA) or amine-coupled to a CM5 chip (Biacore); also called h-TFPI; hTFPI
T1 sequence (looked up): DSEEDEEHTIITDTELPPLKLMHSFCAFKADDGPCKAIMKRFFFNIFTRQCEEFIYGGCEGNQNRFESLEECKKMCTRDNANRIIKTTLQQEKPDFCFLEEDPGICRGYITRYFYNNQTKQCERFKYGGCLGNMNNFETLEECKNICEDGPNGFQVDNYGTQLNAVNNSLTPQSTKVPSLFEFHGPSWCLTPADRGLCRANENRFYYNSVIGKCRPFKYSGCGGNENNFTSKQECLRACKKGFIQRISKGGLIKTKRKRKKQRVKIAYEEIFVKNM
Test: ELISA, Fab in bacterial lysate on coated human TFPI

B1: TP-2D7 (Fab, V domains shown)
VH: QVQLQQSGPGLVKPSQTLSLTCAISGDSVSSNSAAWGWIRQSPGRGLEWLGLIYYRSKWYNDYAVSVKSRITINPDTSKNQFSLQLNSVTPEDTAVYYCARFGDTNRNGTDVWGQGTLVTVSS
VL: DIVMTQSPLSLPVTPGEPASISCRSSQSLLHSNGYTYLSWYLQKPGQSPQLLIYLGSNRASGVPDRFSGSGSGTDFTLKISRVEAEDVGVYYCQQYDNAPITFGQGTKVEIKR
notes: HuCAL Gold human Fab from E. coli TG1
- binding result: binds

B2: TP-3C3 (Fab, V domains shown)
VH: B1 VH with L52V, F102A, G103R, D104A, T105K, N106K, R107S, N108G, T110F, V112Y
VL: DIQMTQSPSSLSASVGDRVTITCRASQSINPYLNWYQQKPGKAPKLLIYAASNLQSGVPSRFSGSGSGTDFTLTISSLQPEDFAVYYCQQLDNRSITFGQGTKVEIKR
notes: as for B1
- binding result: binds

B3: TP-2E5 (Fab, V domains shown)
VH: QVQLQQSGPGLVKPSQTLSLTCAISGDSVSSNSAAWSWIRQSPGRGLEWLGMIFYRSKWNNDYAVSVKSRITINPDTSKNQFSLQLNSVTPEDTAVYYCARVNANGYYAYVDLWGQGTLVTVSS
VL: DIQMTQSPSSLSASVGDRVTITCRASQPIYNSLSWYQQKPGKAPKLLIYGVSNLQSGVPSRFSGSGSGTDFTLTISSLQPEDFAVYYCLQVDNLPITFGQGTKVEIKR
notes: as for B1
- binding result: binds

B5: TP-3F2 (Fab, V domains shown)
VH: QVQLVESGGGLVQPGGSLRLSCAASGFTFSSYSMHWVRQAPGKGLEWVSGISYSSSFTYYADSVKGRFTISRDNSKNTLYLQMNSLRAEDTAVYYCARALGGGVDYWGQGTLVTVSS
VL: DIELTQPPSVSVAPGQTARISCSGDNLPSKSVYWYQQKPGQAPVLVIYGDNNRPSGIPERFSGSNSGNTATLTISGTQAEDEADYYCQSWTSRPMVVFGGGTKLTVLG
notes: as for B1
- binding result: binds

B7: TP-3A3 (Fab, V domains shown)
VH: QVQLVESGGGLVQPGGSLRLSCAASGFTFNNNAISWVRQAPGKGLEWVSAINSSSSSTSYADSVKGRFTISRDNSKNTLYLQMNSLRAEDTAVYYCARGHHRGHSWASFIDYWGQGTLVTVSS
VL: DIELTQPPSVSVAPGQTARISCSGDNIGSKYVHWYQQKPGQAPVVVIYEDSDRPSGIPERFSGSNSGNTATLTISGTQAEDEADYYCQSWDKSEGYVFGGGTKLTVLG
notes: as for B1
- binding result: binds

B10: TP-2G5 (Fab, V domains shown)
VH: QVQLQQSGPGLVKPSQTLSLTCAISGDSVSSNSAAWSWIRQSPGRGLEWLGFIYYRSKWYNDYAVSVKSRITINPDTSKNQFSLQLNSVTPEDTAVYYCARHNPDLGFDYWGQGTLVTVSS
VL: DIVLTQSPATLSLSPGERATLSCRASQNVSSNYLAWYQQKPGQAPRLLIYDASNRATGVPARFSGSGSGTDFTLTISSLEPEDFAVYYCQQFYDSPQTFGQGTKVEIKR
notes: as for B1
- binding result: binds

B11: TP-2H10 (Fab, V domains shown)
VH: QVQLQQSGPGLVKPSQTLSLTCAISGDSVSSNGAAWGWIRQSPGRGLEWLGFIYRRSKWYNSYAVSVKSRITINPDTSKNQFSLQLNSVTPEDTAVYYCARQDGMGGMDSWGQGTLVTVSS
VL: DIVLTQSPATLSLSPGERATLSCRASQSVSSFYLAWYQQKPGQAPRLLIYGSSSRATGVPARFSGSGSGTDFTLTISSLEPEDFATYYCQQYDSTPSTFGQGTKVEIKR
notes: as for B1
- binding result: binds

B13: TP-3A2 (Fab, V domains shown)
VH: QVQLVESGGGLVQPGGSLRLSCAASGFTFSNYYLSWVRQAPGKGLEWVSGISYNGSSTNYADSVKGRFTISRDNSKNTLYLQMNSLRAEDTAVYYCARMWRYSLGADSWGQGTLVTVSS
VL: DIELTQPPSVSVAPGQTARISCSGDNIGSRYAYWYQQKPGQAPVVVIYDDSDRPSGIPERFSGSNSGNTATLTISGTQAEDEADYYCAAYTFYARTVFGGGTKLTVLG
notes: as for B1
- binding result: binds

B14: TP-2F9 (Fab, V domains shown)
VH: QVQLVESGGGLVQPGGSLRLSCAASGFTFYKYAMHWVRQAPGKGLEWVSGIQYDGSYTYYADSVKGRFTISRDNSKNTLYLQMNSLRAEDTAVYYCARYYCKCVDLWGQGTLVTVSS
VL: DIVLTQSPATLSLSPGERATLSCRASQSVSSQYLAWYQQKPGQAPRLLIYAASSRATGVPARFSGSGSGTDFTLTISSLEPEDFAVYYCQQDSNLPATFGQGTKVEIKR
notes: as for B1
- binding result: binds

B16: TP-3C1 (Fab, V domains shown)
VH: B5 VH
VL: DIALTQPASVSGSPGQSITISCTGTSSDLGGFNTVSWYQQHPGKAPKLMIYSVSSRPSGVSNRFSGSKSGNTASLTISGLQAEDEADYYCQSYDLNNLVFGGGTKLTVLG
notes: HuCAL Gold human Fab from E. coli TG1; Shares its VL entry with TP-2G9 and its VH entry with TP-3F2, as the legends print it
- binding result: binds

B18: TP-2G4 (Fab, V domains shown)
VH: QVQLVESGGGLVQPGGSLRLSCAASGFTFSSYAMTWVRQAPGKGLEWVSNISYSGSNTYYADSVKGRFTISRDNSKNTLYLQMNSLRAEDTAVYYCARVGYYYGFDYWGQGTLVTVSS
VL: DIELTQPPSVSVAPGQTARISCSGDALRKHYVYWYQQKPGQAPVLVIYGDNNRPSGIPERFSGSNSGNTATLTISGTQAEDEADYYCQSYDKPYPILVFGGGTKLTVLG
notes: as for B1
- binding result: binds

B19: TP-3B3 (Fab, V domains shown)
VH: B18 VH with A33G, T35H, S54M, Y59N, V99G, G100L, Y101F, Y102P, Y103G, G104Y
VL: DIELTQPASVSVAPGQTARISCSGDNLRSKYAHWYQQKPGQAPVLVIYGDNNRPSGIPERFSGSNSGNTATLTISGTQAEDEADYYCSAYAMGSSPVFGGGTKLTVLG
notes: as for B1
- binding result: binds

B20: TP-3A4 (Fab, V domains shown)
VH: QVQLVESGGGLVQPGGSLRLSCAASGFTFSSYWMHWVRQAPGKGLEWVSSISYDSSNTYYADSVKGRFTISRDNSKNTLYLQMNSLRAEDTAVYYCARYGGMDYWGQGTLVTVSS
VL: DIELTQPPSVSVAPGQTARISCSGDNLRDKYASWYQQKPGQAPVLVIYSKSERPSGIPERFSGSNSGNTATLTISGTQAEDEADYYCSSYTLNPNLNYVFGGGTKLTVLG
notes: as for B1
- binding result: binds

Further lines, results first:

- binding result: binds
B4: TP-3E1 (Fab, V domains shown)
VH: QVQLVESGGGLVQPGGSLRLSCAASGFTFSNYAMTWVRQAPGKGLEWVSVISSVGSNTYYADSVKGRFTISRDNSKNTLYLQMNSLRAEDTAVYYCARPTKAGRTWWWGPYMDVWGQGTLVTVSS
VL: DIELTQPPSVSVAPGQTARISCSGDNIGSYYAYWYQQKPGQAPVLVIYDDSNRPSGIPERFSGSNSGNTATLTISGTQAEDEADYYCQSYDSTGLLVFGGGTKLTVLG
notes: as for B1

- binding result: binds
B6: TP-2G2 (Fab, V domains shown)
VH: QVQLVESGGGLVQPGGSLRLSCAASGFTFSSYAMNWVRQAPGKGLEWVSAILSDGSSTSYADSVKGRFTISRDNSKNTLYLQMNSLRAEDTAVYYCARYPDWGWYTDVWGQGTLVTVSS
VL: DIELTQPPSVSVAPGQTARISCSGDNIRKFYVHWYQQKPGQAPVLVIYGTNKRPSGIPERFSGSNSGNTATLTISGTQAEDEADYYCQSYDSKFNTVFGGGTKLTVLG
notes: as for B1

- binding result: binds
B8: TP-2B9 (Fab, V domains shown)
VH: B11 VH with G33S, F52M, R55H, S62D, Q102Y, D103S, G104S, M105I, G107H, S110Y
VL: DIQMTQSPSSLSASVGDRVTITCRASQSIRSYLAWYQQKPGKAPKLLIYKASNLQSGVPSRFSGSGSGTDFTLTISSLQPEDFAVYYCHQYSDSPVTFGQGTKVEIKR
notes: as for B1

- binding result: binds
B9: TP-2E3 (Fab, V domains shown)
VH: B10 VH with S37G, F52M, H102V, P104Q, D105Y, L106T, G107S, F108S
VL: DIALTQPASVSGSPGQSITISCTGTSSDIGGYNYVSWYQQHPGKAPKLMIYGVNYRPSGVSNRFSGSKSGNTASLTISGLQAEDEADYYCSSADKFTMSIVFGGGTKLTVLG
notes: as for B1

- binding result: binds
B12: TP-3C2 (Fab, V domains shown)
VH: QVQLQQSGPGLVKPSQTLSLTCAISGDSVSSSSAAWSWIRQSPGRGLEWLGMIYYRSKWYNHYAVSVKSRITINPDTSKNQFSLQLNSVTPEDTAVYYCARGGSGVMDVWGQGTLVTVSS
VL: B8 VL with R30T, S31N, A34N, K50D, A51V, H89Q, D93G, S94Y, V96L
notes: as for B1

- binding result: binds
B15: TP-2G9 (Fab, V domains shown)
VH: QVQLVESGGGLVQPGGSLRLSCAASGFTFNSYAMTWVRQAPGKGLEWVSAIKSDGSNTYYADSVKGRFTISRDNSKNTLYLQMNSLRAEDTAVYYCARNDSGWFDVWGQGTLVTVSS
VL: B16 VL
notes: as for B1

- binding result: binds
B17: TP-2C1 (Fab, V domains shown)
VH: QVQLVESGGGLVQPGGSLRLSCAASGFTFSPYVMSWVRQAPGKGLEWVSSISSSSSNTYYADSVKGRFTISRDNSKNTLYLQMNSLRAEDTAVYYCARGDSYMYDVWGQGTLVTVSS
VL: DIELTQPPSVSVAPGQTARISCSGDSIGSYYAHWYQQKPGQAPVLVIYYDSKRPSGIPERFSGSNSGNTATLTISGTQAEDEADYYCQAYTGQSISRVFGGGTKLTVLG
notes: as for B1

- binding result: binds
B21: TP-2A2 (Fab, V domains shown)
VH: QVQLVESGGGLVQPGGSLRLSCAASGFTFSNNAMNWVRQAPGKGLEWVSTISYDGSNTYYADSVKGRFTISRDNSKNTLYLQMNSLRAEDTAVYYCARQAGGWTYSYTDVWGQGTLVTVSS
VL: DIELTQPPSVSVAPGQTARISCSGDNIRTYYVHWYQQKPGQAPVVVIYGDSKRPSGIPERFSGSNSGNTATLTISGTQAEDEADYYCQSYDSEADSEVFGGGTKLTVLG
notes: as for B1

- binding result: binds
B22: TP-2G7 (Fab, V domains shown)
VH: QVQLVESGGGLVQPGGSLRLSCAASGFTFNSYAMSWVRQAPGKGLEWVSNISSNSSNTYYADSVKGRFTISRDNSKNTLYLQMNSLRAEDTAVYYCARKGGGEHGFFPSDIWGQGTLVTVSS
VL: B21 VL with I27L, R28G, V45L, S51N, K52N, S89T, E93N, A94N, D95E, E97I
notes: as for B1

From JP2017222678A (dated 2017)
